Assay results as given in patent publication US20210145973A1 (CITY OF HOPE, published 2021).
Where no end group is shown, it is not given here. phosphorothioated ssDNA 20mer = not defined here

Key:
STAT3 protein = biological target: T1, STAT3 protein (human, UniProt P40763 2-770); assay: immunoprecipitation of the FITC-labeled peptide, Western blotting, U251 cells (FIG. 20E, 20F)
T1 construct: Endogenous STAT3 of human cells (U251, HepG2) or of HCT116 xenograft tumor homogenates
Description: (§1) FIGS. 20A-20I: Conjugating phosphorothioated DNA oligonucleotides (PS) enables acetyl-STAT3 peptide cell penetration and specific interaction with STAT3 and exportin 7 proteins as well as downregulation of STAT3 activation. FIG. 20A. Phosphorothioated DNA oligonucleotide-modified STAT3 peptides efficiently penetrate human glioma cell line U251 and human colon cancer cell line HCT116, as assessed by flow cytometry. FIG. 20B. Cell penetration of the PS-acetyl-STAT3 peptide and its colocalization with STAT3 protein in U251 cells are shown by confocal microscopy. Scale, 50 μm. FIG. 20C and FIG. 20D. The PS acetyl-STAT3 peptide specifically binds to acetylated STAT3 protein and exportin 7, as assessed by ELISA, in which the plate is coated by an acetylated-STAT3 protein (containing amino acids 127-722), n=3. FIG. 20E and FIG. 20F. The specific interaction between acetyl-STAT3 peptide and STAT3/exportin 7 shown by immunoprecipitation of the FITC-labeled PS-acetyl-STAT3 peptide followed by Western blotting, shown in U251 cells. FIG. 20G. Downregulation of STAT3 phosphorylation, shown in HCT116 tumors by immunoprecipitation/Western blotting. FIG. 20H. […]
(§2) The PS acetyl-STAT3 peptide specifically binds to acetylated STAT3 protein and exportin 7, as assessed by ELISA, in which the plate is coated by an acetylated-STAT3 protein (containing amino acids 127-722), n=3 (FIG. 20C and FIG. 20D). […]

[1] = biological target: T2, acetylated-STAT3 protein (containing amino acids 127-722) (Homo sapiens (Human), UniProt P40763 127-722, acetylated (site not stated for this protein)); assay: ELISA, plate coated with acetylated-STAT3 protein (amino acids 127-722), n=3 (FIG. 20C, 20D)
T2 construct: Coated on the ELISA plate
T2 sequence (P40763 127-722): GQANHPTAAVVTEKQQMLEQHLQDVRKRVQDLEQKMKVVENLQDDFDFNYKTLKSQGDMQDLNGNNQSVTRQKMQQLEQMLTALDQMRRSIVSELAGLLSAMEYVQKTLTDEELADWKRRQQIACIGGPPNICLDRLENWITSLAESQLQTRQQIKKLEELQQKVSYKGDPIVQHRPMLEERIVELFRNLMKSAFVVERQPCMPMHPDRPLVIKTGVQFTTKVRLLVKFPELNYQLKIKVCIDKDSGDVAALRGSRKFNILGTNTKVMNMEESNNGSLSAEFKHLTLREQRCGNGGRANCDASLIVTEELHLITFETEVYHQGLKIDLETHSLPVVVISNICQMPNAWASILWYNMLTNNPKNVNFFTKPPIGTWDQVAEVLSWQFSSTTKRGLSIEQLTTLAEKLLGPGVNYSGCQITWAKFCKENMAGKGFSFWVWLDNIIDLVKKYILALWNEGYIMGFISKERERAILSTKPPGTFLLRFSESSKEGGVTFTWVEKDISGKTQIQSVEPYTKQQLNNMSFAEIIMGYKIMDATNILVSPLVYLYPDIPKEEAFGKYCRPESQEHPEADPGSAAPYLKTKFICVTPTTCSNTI
Description: as §1, §2

T1 sequence (P40763 2-770 limits assumed): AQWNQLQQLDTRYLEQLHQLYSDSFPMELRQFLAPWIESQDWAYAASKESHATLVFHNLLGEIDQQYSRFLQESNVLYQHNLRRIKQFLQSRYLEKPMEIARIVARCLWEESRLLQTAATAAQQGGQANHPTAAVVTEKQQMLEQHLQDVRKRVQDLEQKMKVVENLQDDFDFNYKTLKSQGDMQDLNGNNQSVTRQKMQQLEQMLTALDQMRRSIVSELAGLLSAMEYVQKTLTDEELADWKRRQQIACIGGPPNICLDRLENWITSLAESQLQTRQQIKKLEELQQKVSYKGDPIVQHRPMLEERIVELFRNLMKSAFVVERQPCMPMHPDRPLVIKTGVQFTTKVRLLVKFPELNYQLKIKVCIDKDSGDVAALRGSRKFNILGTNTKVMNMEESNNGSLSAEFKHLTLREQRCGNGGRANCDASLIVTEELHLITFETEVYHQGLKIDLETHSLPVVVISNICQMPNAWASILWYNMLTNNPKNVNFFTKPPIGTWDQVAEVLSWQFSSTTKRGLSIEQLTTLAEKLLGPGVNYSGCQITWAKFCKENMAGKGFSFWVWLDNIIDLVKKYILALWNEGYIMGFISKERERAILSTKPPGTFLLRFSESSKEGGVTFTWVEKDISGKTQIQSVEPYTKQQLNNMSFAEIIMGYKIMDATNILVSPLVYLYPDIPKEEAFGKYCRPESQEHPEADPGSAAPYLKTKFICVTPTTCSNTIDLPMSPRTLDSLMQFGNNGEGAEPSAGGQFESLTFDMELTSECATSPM

B1: PS-acetyl-STAT3 peptide (STAT3-acet.K685 peptide elongated at its C-terminus with a phosphorothioated ssDNA 20mer, FITC-labeled) (peptide)
peptide: PDIPKEEAFGK(Ac)YCRPESQEHPC-{hydrazide linker with FITC (Fam dT)-phosphorothioated ssDNA 20mer}
modifications: cysteine pairing not given here; reading uncertain
notes: Peptide-oligonucleotide conjugate; only the peptide part is a polypeptide; The FITC in the linker was used as the tag for precipitation
What does the source list for B1?
binding result (STAT3 protein): binds; binding result [1]: binds
